Test results: the Immune Epitope Database (IEDB)

Assays:
HLA-C*04:01 = assay: IEDB peptide-MHC binding, purified MHC/competitive/fluorescence; filed as Kd, often an IC50 or EC50 that approximates it; ≥ and ≤ were set here for values at or beyond the usual limits of such assays
HLA-A*29:02 = assay: as above; conditions: source organism: Mycosarcoma maydis
HLA-B*83:01 = assay: as above
HLA-A*32:15 = assay: as above
HLA-B*15:42 = assay: as above
HLA-A*32:07 = assay: as above
HLA-B*45:06 = assay: as above
HLA-A*02:01 [1] = assay: as above; conditions: source organism: Shigella flexneri 5 str. 8401
HLA-A*24:02 [2] = assay: as above; conditions: source organism: Shigella flexneri 5 str. 8401
HLA-A*31:01 [3] = assay: as above; conditions: source organism: Shigella flexneri 5 str. 8401
HLA-B*08:01 = assay: as above; conditions: source organism: Shigella flexneri 5 str. 8401
HLA-A*02:01 [4] = assay: IEDB peptide-MHC binding, purified MHC/competitive/fluorescence; ≥ and ≤ were set here for values at or beyond the usual limits of such assays; conditions: source organism: Zaire ebolavirus
HLA-A*24:02 [5] = assay: as above; conditions: source organism: Zaire ebolavirus
HLA-A*11:01 = assay: as above
HLA-A*01:01 = assay: as above
HLA-C*15:02 = assay: IEDB peptide-MHC binding, purified MHC/direct/fluorescence; filed as Kd, often an IC50 or EC50 that approximates it; ≥ and ≤ were set here for values at or beyond the usual limits of such assays
HLA-A*26:01 = assay: as above; conditions: source organism: Mycobacterium tuberculosis
HLA-C*14:02 = assay: as above
HLA-C*08:02 = assay: as above; conditions: source organism: Mycobacterium tuberculosis str. Haarlem
HLA-C*03:03 = assay: as above; conditions: source organism: Escherichia coli str. K-12 substr. MG1655
HLA-C*05:01 = assay: as above
HLA-B*58:01 = assay: IEDB peptide-MHC binding, purified MHC/competitive/fluorescence; filed as Kd, often an IC50 or EC50 that approximates it; ≥ and ≤ were set here for values at or beyond the usual limits of such assays; conditions: source organism: Escherichia coli str. K-12 substr. MG1655
HLA-B*39:01 = assay: as above; conditions: source organism: Escherichia coli str. K-12 substr. MG1655
HLA-A*31:01 [6] = assay: IEDB peptide-MHC binding, purified MHC/competitive/radioactivity; filed as Kd, often an IC50 or EC50 that approximates it; ≥ and ≤ were set here for values at or beyond the usual limits of such assays; conditions: source organism: Vaccinia virus WR
HLA-A*33:01 = assay: as above; conditions: source organism: Vaccinia virus WR
HLA-A*68:01 = assay: as above; conditions: source organism: Vaccinia virus WR
HLA-B*15:01 = assay: IEDB peptide-MHC binding, purified MHC/competitive/fluorescence; ≥ and ≤ were set here for values at or beyond the usual limits of such assays; conditions: source organism: Vaccinia virus Copenhagen
HLA-A*03:01 = assay: as above; conditions: source organism: Vaccinia virus Copenhagen
HLA-A*02:03 = assay: IEDB peptide-MHC binding, purified MHC/direct/fluorescence; filed as Kd, often an IC50 or EC50 that approximates it; ≥ and ≤ were set here for values at or beyond the usual limits of such assays; conditions: source organism: Mycobacterium tuberculosis str. Haarlem
HLA-A*02:11 = assay: as above; conditions: source organism: Mycobacterium tuberculosis str. Haarlem
HLA-C*07:02 = assay: as above; conditions: source organism: Mycobacterium tuberculosis variant bovis BCG str. Pasteur 1173P2
HLA-C*06:02 = assay: as above; conditions: source organism: Mycobacterium tuberculosis variant bovis BCG str. Pasteur 1173P2
HLA-A*69:01 = assay: as above; conditions: source organism: Mycobacterium tuberculosis
[7] = source organism: Mycosarcoma maydis
[8] = source organism: Shigella flexneri 5 str. 8401
[9] = source organism: Zaire ebolavirus
[10] = source organism: Mycobacterium tuberculosis str. Haarlem
[11] = source organism: Escherichia coli str. K-12 substr. MG1655
[12] = source organism: Vaccinia virus Copenhagen
[13] = source organism: Mycobacterium tuberculosis variant bovis BCG str. Pasteur 1173P2

IPVHPRHPY gave a Kd (HLA-C*04:01; [7]) of at least 5 µM, a Kd (HLA-A*29:02) of 0.938 µM and a Kd (HLA-B*83:01; [7]) of 0.222 µM. It also gave a Kd (HLA-A*32:15; [7]) of 1.43 µM, a Kd (HLA-B*15:42; [7]) of at least 5 µM and a Kd (HLA-A*32:07; [7]) of 0.393 µM. For the same sequence, the Kd (HLA-B*45:06; [7]) was at least 5 µM.

IIMRRFFYF gave a Kd (HLA-A*02:01 [1]) of 0.0329 µM, a Kd (HLA-A*24:02 [2]) of at most 0.0001 µM and a Kd (HLA-A*31:01 [3]) of 0.0012 µM. The Kd (HLA-B*83:01; [8]) was at least 5 µM, the Kd (HLA-A*32:15; [8]) was 0.0677 µM and the Kd (HLA-B*15:42; [8]) was at least 5 µM. The Kd (HLA-B*08:01) was 0.0222 µM and the Kd (HLA-B*45:06; [8]) was at least 5 µM.

Work on ITDKIDQII yielded an IC50 (HLA-A*02:01 [4]) of 5.02 µM, an IC50 (HLA-A*24:02 [5]) of 8.7 µM and an IC50 (HLA-A*11:01; [9]) of 39.2 µM. For the same sequence, the IC50 (HLA-A*01:01; [9]) was 5.95 µM.

YTPEQWWPF showed a Kd (HLA-C*15:02; [10]) of at least 20 µM, a Kd (HLA-A*26:01) of 0.0114 µM and a Kd (HLA-C*14:02; [10]) of 0.969 µM. It also gave a Kd (HLA-C*08:02) of at least 20 µM, a Kd (HLA-C*04:01; [10]) of at least 5 µM and a Kd (HLA-B*83:01; [10]) of at least 5 µM. It also gave a Kd (HLA-A*32:15; [10]) of 0.0382 µM, a Kd (HLA-B*15:42; [10]) of at least 5 µM and a Kd (HLA-A*32:07; [10]) of 0.0229 µM. The Kd (HLA-B*45:06; [10]) was at least 5 µM.

AAAVAYPEL showed a Kd (HLA-C*03:03) of 0.002 µM, a Kd (HLA-C*05:01; [11]) of at least 20 µM and a Kd (HLA-C*14:02; [11]) of 2.99 µM. The Kd (HLA-B*58:01) was at least 20 µM and the Kd (HLA-B*39:01) was at least 20 µM.

With KSNAKCIEY the Kd (HLA-A*31:01 [6]) was 0.347 µM, the Kd (HLA-A*33:01) was at least 25.8 µM and the Kd (HLA-A*68:01) was at least 24.7 µM. For the same sequence, the IC50 (HLA-B*15:01) was 18.2 µM, the IC50 (HLA-A*11:01; [12]) was 21.7 µM and the IC50 (HLA-A*03:01) was 16.5 µM. The IC50 (HLA-A*01:01; [12]) was 41.8 µM.

YMLDMTFPV was tested, and the Kd (HLA-C*15:02; [13]) was 0.407 µM, the Kd (HLA-A*02:03) was at most 0.001 µM and the Kd (HLA-A*02:11) was at most 0.001 µM. For the same sequence, the Kd (HLA-C*07:02) was 0.651 µM, the Kd (HLA-C*06:02) was at least 20 µM and the Kd (HLA-C*05:01; [13]) was 3.43 µM. For the same sequence, the Kd (HLA-C*14:02; [13]) was 0.076 µM and the Kd (HLA-A*69:01) was at most 0.001 µM.
